Reference: article PMC2975869

How the values were obtained:
[1] = target: endogenous PTH1R of A10 cells (rat (endogenous in A10)) (UniProt P25961)
[2] = target: HA-tagged PTH1R (parathyroid hormone type 1 receptor), wild type (UniProt Q03431); test: radioligand binding
[3] = target: endogenous PTH1R of A10 cells (rat (endogenous in A10)) (UniProt P25961); test: radioligand binding

Sequence of UniProt P25961 (P25961 27-591): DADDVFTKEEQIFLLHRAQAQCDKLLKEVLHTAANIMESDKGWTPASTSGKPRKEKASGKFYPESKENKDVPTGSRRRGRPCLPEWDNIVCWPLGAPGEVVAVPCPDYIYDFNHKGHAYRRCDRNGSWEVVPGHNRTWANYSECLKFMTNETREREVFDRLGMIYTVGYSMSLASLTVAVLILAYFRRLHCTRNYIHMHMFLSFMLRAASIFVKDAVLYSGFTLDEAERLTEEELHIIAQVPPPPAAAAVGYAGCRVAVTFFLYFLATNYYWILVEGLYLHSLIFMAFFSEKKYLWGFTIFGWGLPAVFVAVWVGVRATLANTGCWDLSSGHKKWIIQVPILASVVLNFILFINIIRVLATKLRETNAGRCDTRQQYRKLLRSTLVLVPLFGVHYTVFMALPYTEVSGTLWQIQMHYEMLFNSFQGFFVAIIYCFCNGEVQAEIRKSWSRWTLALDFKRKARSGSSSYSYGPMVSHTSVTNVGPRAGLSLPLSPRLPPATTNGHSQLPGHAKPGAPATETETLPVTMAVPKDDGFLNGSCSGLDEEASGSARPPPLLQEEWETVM

Substance	cAMP production in A10 cells in response to PTHrP(1-36), 30 min at 37 °C [1]	Total Binding (TB), cells co-transfected with EBP50 [2]	Total Binding (TB), cells co-transfected with pcDNA3 [2]	Total Binding (TB), cells transfected with EBP50 [3]	Total Binding (TB), cells transfected with pcDNA3 [3]
PTHrP (1-36)-NH2 (peptide)	3 fold				
[125I]-PTH(1-34)NH2 (peptide)		1980	1290	2470	1550
